Patent publication US11021532
Changes are numbered by the printed parent chain.

B1: COVID19_P11_H07 (scFv, V domains shown)
VH: QVQLVQSGAEVKKPGASVKVSCKASGYTFTSYDINWVRQAPGQGLEWMGWMNSNSGSTGYAQKFQGRVTMTRDTSTSTVYMELSSLRSEDTAVYYCARGWMAYDAFDIWGQGTMVTVSS
VL: DIQMTQSPSSLSASVGDRVTITCQASQSIYNYLNWYQQKPGKAPKLLIYDASNLETGVPSRFSGSGSGTDFTLTISSLQPEDFATYYCQQAISFPLTFGGGTKVEIKR
B2: COVID19_P23_G10 (scFv, V domains shown)
VH: QVQLVQSGAEVKKPGSSVKVSCKASGYTFTDYYIQWVRQAPGQGLEWMGWINPNSGGPNYAQKFQGRVTITADESTSTAYMELSSLRSEDTAVYYCARVDYGDYGRLEDYWGQGTLVTVSS
VL: DIQMTQSPSSLSASVGDRVTITCRASQSIYSWLAWYQQKPGKAPKLLIYDASSLESGVPSRFSGSGSGTDFTLTISSLQPEDFATYYCQQLNSYPYTFGQGTKVEIKR
B3: COVID19_P24_G09 (scFv, V domains shown)
VH: QVQLVQSGAEVKKPGASVKVSCKASGYTFTRYYIHWVRQAPGQGLEWMGIINPSGGSTTYAQKFQGRVTMTRDTSTSTVYMELSSLRSEDTAVYYCAKGAPHDYIWGSYRPDAFDIWGQGTMVTVSS
VL: B2 VL with Q27E, S28N, Y30D, D50E, S53T, Q89H, L91Y, N92L, Y94S, Y96E
B4: COVID19_P24_C06 (scFv, V domains shown)
VH: QVQLVQSGAEVKKPGASVKVSCKASGYIFTSYPIHWVRQAPGQGLEWMGWMNPNSGNTGYAQKFQGRVTMTRDTSTSTVYMELSSLRSEDTAVYYCARDRGSYDTDAFDIWGQGTMVTVSS
VL: B1 VL with Q24R, S28D, Y30S, D50A, E55Q, T56S, I92N, L96S, G100Q, V104L
B5: COVID19_P24_B09 (scFv, V domains shown)
VH: QVQLVQSGAEVKKPGSSVYVSCKASGYTFTSYGISWVRQAPGQGLEWMGGIIPMFGTTNYAQKFQGRVTITADKSTSTAYMELSSLRSEDTAVYYCARDRGDTIDYWGQGTLVTVSS
VL: DIQMTQSPSSLSASVGDRVTITCRASQGISNNLNWYQQKPGKAPKLLIYAASSLESGVPSRFSGSGSGTDFTLTISSLQPEDFATYYCQQGNGFPLTFGPGTKVDIKR
B6: COVID19_P24_A09 (scFv, V domains shown)
VH: QVQLVQSGAEVKKPGASVKVSCKASGYTFTDYYMQWVRQAPGQGLEWMGWIDPHSGATNYAHSFQGRVTMTRDTSTSTVYMELSSLRSEDTAVYYCARLEGGSYWTGYFDLWGRGTLVTVSS
VL: EIVMTQSPATLSVSPGERATLSCRASQSVSSNYLAWYQQKPGQAPRLLIYAVSSRATGIPARFSGSGSGTEFTLTISSLQSEDFAVYYCQQYGSSPLTFGGGTKVEIKR
B7: COVID19_P24_F11 (scFv, V domains shown)
VH: EVQLLESGGGLVQPGGSLRLSCAASGFTFSGSAMHWVRQAPGKGLEYVSAISRNGGTTYYADSVKGRFTISRDNSKNTLYLQMNSLRAEDTAVYYCAKDGTLITTTLDYWGQGTLVTVSS
VL: DIQMTQSPSSLSASVGDRVTITCRASQSIGYYLNWYQQKPGKAPKLLIYAASSLQSGVPSRFSGSGSGTDFTLTISSLQPEDFATYYCQQSYTTPLTFGGGTKVEIKR
B8: COVID19_P11_G03 (scFv, V domains shown)
VH: QVQLVQSGAEVKKPGASVKVSCKASGYTFTSYEINWVRQAPGQGLEWMGIINPSDGSSTYAQKFQGRVTMTRDTSTSTVYMELSSLRSEDTAVYYCARDRGYSYDHDQIYYYYGMDVWGQGTTVTVSS
VL: B5 VL with A25V, N31S, N32Y, S53I, E55Q, N92Y, G93S, F94T, L96F
B9: COVID19_P11_H02 (scFv, V domains shown)
VH: QVQLVQSGAEVKKPGASVKVSCKASGGTFTSYHMHWVRQAPGQGLEWMGWMNPNSGNTGYALKFQGRVTMTRDTSTSTVYMELSSLRSEDTAVYYCASFERFGELVPETFDYWGQGTLVTVSS
VL: B7 VL with S28G, G30R, Y31N, Y32D, N34A, T93S, L96P, G100Q, V104L
B10: COVID19_P24_H04 (scFv, V domains shown)
VH: QVQLVQSGAEVKKPGASVKVSCKASGYTFTDYHMHWVRQAPGQGLEWMGWMNPNSGNTSYAQKFQGRVTMTRDTSTSTVYMELSSLRSEDTAVYYCAGMGMGRDGYNSRAFDIWGQGTMVTVSS
VL: B7 VL with G30S, Y31T, S53T, T93S, T94M, G100Q
B11: COVID19_P11_D12 (scFv, V domains shown)
VH: QVQLVQSGAEVKKPGASVKVSCKASGYTFTENEMHWVRQAPGQGLEWMGIINPSGGSTSYAQKFQGRVTMTRDTSTSTVYMELSSLRSEDTAVYYCAKTRYGGNSRSRYYYYGMDVWGQGTTVTVSS
VL: B7 VL with S28H, G30S, Y31S, S53A, S91G, T93G, L96Y, G100Q
B12: COVID19_P24_A11 (scFv, V domains shown)
VH: QVQLVQSGAEVKKPGASVKVSCKASGYTFTENEMHWVRQAPGQGLEWMGIINPSGGSTSYAQKFQGRVTMTRDTSTSTVYMELSSLRSEDTAVYYCARDLMDIVVVPWLGGMDVWGQGTTVTVSS
VL: B7 VL with S28A, G30T, Y31N, N34A, S91Y, T93S, T94Y, L96P, G100Q, V104L
B13: COVID19_P24_C10 (scFv, V domains shown)
VH: B11 VH with K98R, T99D, R100S, Y101G, G102V, G103D, N104T, S105A, R106T, S107L
VL: DIQMTQSPSSLSASVGDRVTITCQASQDISKYLNWYQQKPGKAPKLLIYGASTLSDGVPSRFSGSGSGTDFTLTISSLQPEDFATYYCQQGYSTPYSFGQGTKLEIKR
B14: COVID19_P11_D08 (scFv, V domains shown)
VH: B11 VH with K98R, T99D, R100S, Y101G, G102V, G103D, N104T, S105A, R106T, S107L
VL: B13 VL
B15: COVID19_P23_F10 (scFv, V domains shown)
VH: QVQLVQSGAEVKKPGASVKVSCKASGDTFSNYGISWVRQAPGQGLEWMGWMNPNSGGTNYAQKFQGRVTMTRDTSTSTVYMELSSLRSEDTAVYYCAIGTTVVTPFGYWGQGTLVNVSS
VL: EIVMTQSPATLSVSPGERATLSCRASESVSSRYLAWYQQKPGQAPRLLIYGASTRATGIPARFSGSGSGTEFTLTISSLQSEDFAVYYCQQGYKNPPTFGQGTKVEIKR
B16: COVID19_P24_H06 (scFv, V domains shown)
VH: EVQLLESGGGLVQPGGSLRLSCAASGFSFSNYDMHWVRQAPGKGLEWVAVISYDGGFKLYADSVKGRFTISRDNAKNSLYLRMNSLRSEDTAVYYCARGQVRGSGPQVVVMDVWGKGTTVTVSS
VL: DIQMTQSPSSLSASVGDRVTITCQASQGIRNDLGWYQQKPGKAPKLLIYDASRLQSGVPSRFSGSGSGTDFTLTISSLQPEDFATYYCQQYYSTPPLTFGQGTKVEIKR
B17: COVID19_P24_D09 (scFv, V domains shown)
VH: QVQLVQSGAEVKKPGASVKVSCKASGGTFSSYAISWVRQAPGQGLEWMGIVNPSSGSTTYAQKFQGRVTMTRDTSTSTVYMELSSLRSEDTAVYYCARVRGSAAIAMMDVWGQGTTVTVSS
VL: B16 VL with Q24R, G28D, D32E, D50A, R53S, Y91S, L97W, V105L

Biological target: SARS-CoV-2 Receptor Binding Domain (RBD) protein (SARS-CoV-2)
Test: not given

Q: B1 was tested. Which Kd did it give?
A: Its Kd is under 50 nM.

Biological target: SARS-CoV-2 Receptor Binding Domain (RBD) protein (SARS-CoV-2)
Test: SPR (Carterra LSA), scFv captured via anti-V5, RBD as analyte, 1:1 fit

Q: With B2 as the binder, how does the Kd read?
A: Its Kd is 0.37 nM.

Q: And the koff?
A: Its koff is 5.7e-05 s⁻¹.

Q: What about the kon of the same binder?
A: Its kon is 154000 M⁻¹ s⁻¹.

Q: For B3, which Kd is on record?
A: The Kd was 1.56 nM.

Q: What about the koff of the same binder?
A: Its koff is 0.000512 s⁻¹.

Q: And the kon?
A: Its kon is 329000 M⁻¹ s⁻¹.

Q: Which results are given for B4?
A: Kd: 0.3 nM; koff: 5.7e-05 s⁻¹; kon: 228000 M⁻¹ s⁻¹

Q: Which results are given for B5?
A: Kd: 27.5 nM; koff: 0.0139 s⁻¹; kon: 508000 M⁻¹ s⁻¹

Q: B1 was tested. Which Kd did it give?
A: The Kd was 0.5 nM.

Q: And the koff?
A: The koff was 5.7e-05 s⁻¹.

Q: What about the kon of the same binder?
A: The kon was 110000 M⁻¹ s⁻¹.

Q: B6 was tested. Which Kd did it give?
A: The Kd was 1.51 nM.

Q: What about the koff of the same binder?
A: Its koff is 0.000229 s⁻¹.

Q: What about the kon of the same binder?
A: The kon was 152000 M⁻¹ s⁻¹.

Q: What does the source list for B7?
A: Kd: 0.46 nM; koff: 0.00028 s⁻¹; kon: 616000 M⁻¹ s⁻¹

Q: B8 was tested. Which Kd did it give?
A: The Kd was 6.45 nM.

Q: And the koff?
A: The koff was 0.00064 s⁻¹.

Q: And the kon?
A: Its kon is 99000 M⁻¹ s⁻¹.

Q: How did the Kd turn out when B9 was run?
A: Its Kd is 2.2 nM.

Q: What about the koff of the same binder?
A: The koff was 0.00071 s⁻¹.

Q: What about the kon of the same binder?
A: Its kon is 320000 M⁻¹ s⁻¹.

Q: For B10, which Kd is on record?
A: Its Kd is 4 nM.

Q: What about the koff of the same binder?
A: Its koff is 0.00068 s⁻¹.

Q: And the kon?
A: The kon was 170000 M⁻¹ s⁻¹.

Q: B11 was tested. Which Kd did it give?
A: Its Kd is 4.3 nM.

Q: What about the koff of the same binder?
A: Its koff is 0.00034 s⁻¹.

Q: What about the kon of the same binder?
A: The kon was 79000 M⁻¹ s⁻¹.

Q: What does the source list for B12?
A: Kd: 1.95 nM; koff: 0.000308 s⁻¹; kon: 158000 M⁻¹ s⁻¹

Q: Which results are given for B13?
A: Kd: 0.88 nM; koff: 0.000487 s⁻¹; kon: 553000 M⁻¹ s⁻¹

Q: What does the source list for B14?
A: Kd: 4.7 nM; koff: 0.00053 s⁻¹; kon: 110000 M⁻¹ s⁻¹

Q: Which Kd does the source give for B15 here?
A: Its Kd is 7.86 nM.

Q: And the koff?
A: Its koff is 0.00077 s⁻¹.

Q: And the kon?
A: The kon was 98000 M⁻¹ s⁻¹.

Q: How did the Kd turn out when B16 was run?
A: The Kd was 0.5 nM.

Q: What about the koff of the same binder?
A: The koff was 5.7e-05 s⁻¹.

Q: What about the kon of the same binder?
A: Its kon is 120000 M⁻¹ s⁻¹.

Q: With B17 as the binder, how does the Kd read?
A: Its Kd is 0.5 nM.

Q: And the koff?
A: Its koff is 5.7e-05 s⁻¹.

Q: What about the kon of the same binder?
A: Its kon is 114000 M⁻¹ s⁻¹.

Biological target: SARS-CoV-2 Receptor Binding Domain (RBD) protein (SARS-CoV-2)
Test: SPR (Carterra LSA), scFv captured via anti-V5, RBD as analyte

Q: With B2 as the binder, how does the Kd read?
A: The Kd was under 50 nM.

Q: Which Kd does the source give for B3 here?
A: Its Kd is under 50 nM.

Q: B4 was tested. Which Kd did it give?
A: The Kd was under 50 nM.

Q: With B5 as the binder, how does the Kd read?
A: The Kd was under 50 nM.

Q: Which Kd does the source give for B6 here?
A: The Kd was under 50 nM.

Q: With B7 as the binder, how does the Kd read?
A: The Kd was under 50 nM.

Q: For B8, which Kd is on record?
A: Its Kd is under 50 nM.

Q: Which Kd does the source give for B9 here?
A: Its Kd is under 50 nM.

Q: With B10 as the binder, how does the Kd read?
A: The Kd was under 50 nM.

Q: B11 was tested. Which Kd did it give?
A: Its Kd is under 50 nM.

Q: For B12, which Kd is on record?
A: Its Kd is under 50 nM.

Q: For B13, which Kd is on record?
A: The Kd was under 50 nM.

Q: B14 was tested. Which Kd did it give?
A: Its Kd is under 50 nM.

Q: Which Kd does the source give for B15 here?
A: Its Kd is under 50 nM.

Q: How did the Kd turn out when B16 was run?
A: The Kd was under 50 nM.

Q: How did the Kd turn out when B17 was run?
A: Its Kd is under 50 nM.
